Values joined by “and” are separate entries in the source; they are usually repeats but may differ in a detail not shown here. Equal values may be shown once.
What was measured:
ABL2 SH2 domain (human) = ABL2 SH2 domain (human) (UniProt P42684); assay: peptide or protein array; SH2/PTB proteins spotted on aldehyde slides, rhodamine peptide titrated in buffer B (20 mM HEPES, 100 mM KCl, 0.1% Tween-20, 5 mM DTT, pH 7.8), 1 h at room temperature; replicate assays
BLK SH2 domain (human) = BLK SH2 domain (human) (UniProt P51451); assay: as above
BLNK SH2 domain (human) = BLNK SH2 domain (human) (UniProt Q8WV28); assay: as above
BTK SH2 domain (human) = BTK SH2 domain (human) (UniProt Q06187); assay: as above
HCK SH2 domain (human) = HCK SH2 domain (human) (UniProt P08631); assay: as above
NCK1 SH2 domain (human) = NCK1 SH2 domain (human) (UniProt P16333); assay: as above
[1] = target: PIK3R2 tandem SH2 domains (human) (UniProt O00459); assay: as above
[2] = target: PLCG2 tandem SH2 domains (human); assay: as above
PTK6 SH2 domain (human) = PTK6 SH2 domain (human) (UniProt Q13882); assay: as above
[3] = target: PTPN6 tandem SH2 domains (human); assay: as above
[4] = target: RASA1 N-terminal SH2 domain (human) (UniProt P20936); assay: as above
[5] = target: RASA1 tandem SH2 domains (human); assay: as above
[6] = target: SH2D1A SH2 domain (human) (UniProt O60880); assay: as above
[7] = target: SH2D3A SH2 domain (human) (UniProt Q9BRG2); assay: as above
[8] = target: SH2D3C SH2 domain (human) (UniProt Q8N5H7); assay: as above
[9] = target: SH3BP2 SH2 domain (human) (UniProt P78314); assay: as above
SHF SH2 domain (human) = SHF SH2 domain (human) (UniProt Q7M4L6); assay: as above
SRC SH2 domain (human) = SRC SH2 domain (human) (UniProt P12931); assay: as above
[10] = target: SYK C-terminal SH2 domain (human); assay: as above
[11] = target: SYK N-terminal SH2 domain (human); assay: as above
[12] = target: SYK tandem SH2 domains (human); assay: as above
TEC SH2 domain (human) = TEC SH2 domain (human) (UniProt P42680); assay: as above
TNS1 SH2 domain (human) = TNS1 SH2 domain (human) (UniProt Q9HBL0); assay: as above
YES1 SH2 domain (human) = YES1 SH2 domain (human) (UniProt P07947); assay: as above
[13] = target: ErbB2 Y735 non-phosphorylated peptide, rhodamine-labelled (human); assay: fluorescence polarisation; saturation binding in solution: rhodamine peptide fixed at 10 nM, protein titrated 0.002-10 uM, 20 min at room temperature; assay buffer 20 mM HEPES, 100 mM KCl, 0.1% Tween-20, 5 mM DTT, pH 7.8; apparent KD
[14] = target: ErbB2 Y1221 non-phosphorylated peptide, rhodamine-labelled (human); assay: as above
[15] = target: ErbB2pY1196 phosphopeptide, rhodamine-labelled (human); assay: as above
[16] = target: ErbB3pY1307 phosphopeptide, rhodamine-labelled (human); assay: as above
[17] = target: ErbB1 pY900 phosphopeptide, rhodamine-labelled (human); assay: as above
[18] = target: ErbB2 pY685 phosphopeptide, rhodamine-labelled (human); assay: as above
[19] = target: ErbB4 pY906 phosphopeptide, rhodamine-labelled (human); assay: as above
[20] = target: KIT pY936 phosphopeptide, rhodamine-labelled; assay: as above
[21] = target: MET pY1313 phosphopeptide, rhodamine-labelled; assay: as above

Chain of SH3BP2 SH2 domain (human) (P78314 457-555): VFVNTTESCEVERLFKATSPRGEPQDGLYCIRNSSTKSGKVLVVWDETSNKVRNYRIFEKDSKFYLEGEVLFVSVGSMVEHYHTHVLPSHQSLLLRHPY
Chain of BLK SH2 domain (human) (P51451 124-220): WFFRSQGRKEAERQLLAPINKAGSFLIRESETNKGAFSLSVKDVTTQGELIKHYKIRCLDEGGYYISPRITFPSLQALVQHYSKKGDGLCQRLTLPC
Chain of SH2D1A SH2 domain (human) (O60880 6-104): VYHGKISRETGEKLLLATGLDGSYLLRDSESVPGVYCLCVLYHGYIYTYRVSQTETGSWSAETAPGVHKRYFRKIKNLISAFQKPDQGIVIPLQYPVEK
Chain of YES1 SH2 domain (human) (P07947 158-255): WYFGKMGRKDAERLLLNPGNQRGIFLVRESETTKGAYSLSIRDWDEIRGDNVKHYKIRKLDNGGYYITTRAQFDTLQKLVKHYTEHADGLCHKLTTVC
Chain of SHF SH2 domain (human) (Q7M4L6 323-418): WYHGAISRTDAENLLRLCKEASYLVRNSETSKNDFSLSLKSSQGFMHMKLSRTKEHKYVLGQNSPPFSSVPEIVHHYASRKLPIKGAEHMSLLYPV
Chain of TEC SH2 domain (human) (P42680 247-345): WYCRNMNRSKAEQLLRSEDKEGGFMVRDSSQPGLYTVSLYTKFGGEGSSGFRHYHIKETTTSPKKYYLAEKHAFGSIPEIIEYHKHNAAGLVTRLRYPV
Chain of SH2D3A SH2 domain (human) (Q9BRG2 15-114): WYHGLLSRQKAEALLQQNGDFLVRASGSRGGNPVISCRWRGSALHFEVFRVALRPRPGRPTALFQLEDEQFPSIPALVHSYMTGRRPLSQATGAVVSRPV
Chain of PTK6 SH2 domain (human) (Q13882 78-170): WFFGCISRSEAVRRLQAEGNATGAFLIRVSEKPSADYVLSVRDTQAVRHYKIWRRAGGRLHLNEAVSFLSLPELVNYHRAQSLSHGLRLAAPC
Chain of ABL2 SH2 domain (human) (P42684 173-263): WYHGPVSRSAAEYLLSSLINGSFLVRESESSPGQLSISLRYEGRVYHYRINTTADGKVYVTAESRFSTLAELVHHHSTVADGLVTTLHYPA
Chain of TNS1 SH2 domain (human) (Q9HBL0 1567-1676): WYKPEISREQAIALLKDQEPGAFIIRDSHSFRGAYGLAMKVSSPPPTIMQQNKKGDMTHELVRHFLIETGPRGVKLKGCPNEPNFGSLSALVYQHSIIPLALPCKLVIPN
Chain of SH2D3C SH2 domain (human) (Q8N5H7 220-319): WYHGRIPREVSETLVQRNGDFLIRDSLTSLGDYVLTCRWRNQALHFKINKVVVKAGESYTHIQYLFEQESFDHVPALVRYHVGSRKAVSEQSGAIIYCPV
Chain of BLNK SH2 domain (human) (Q8WV28 346-453): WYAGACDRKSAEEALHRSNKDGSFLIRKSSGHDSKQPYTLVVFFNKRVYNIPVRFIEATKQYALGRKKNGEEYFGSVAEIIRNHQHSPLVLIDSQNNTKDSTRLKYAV
Chain of BTK SH2 domain (human) (Q06187 281-377): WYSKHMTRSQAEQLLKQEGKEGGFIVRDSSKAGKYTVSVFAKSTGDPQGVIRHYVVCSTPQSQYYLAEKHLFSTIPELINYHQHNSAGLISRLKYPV
Chain of RASA1 N-terminal SH2 domain (human) (P20936 whole entry, the tested form may be a part): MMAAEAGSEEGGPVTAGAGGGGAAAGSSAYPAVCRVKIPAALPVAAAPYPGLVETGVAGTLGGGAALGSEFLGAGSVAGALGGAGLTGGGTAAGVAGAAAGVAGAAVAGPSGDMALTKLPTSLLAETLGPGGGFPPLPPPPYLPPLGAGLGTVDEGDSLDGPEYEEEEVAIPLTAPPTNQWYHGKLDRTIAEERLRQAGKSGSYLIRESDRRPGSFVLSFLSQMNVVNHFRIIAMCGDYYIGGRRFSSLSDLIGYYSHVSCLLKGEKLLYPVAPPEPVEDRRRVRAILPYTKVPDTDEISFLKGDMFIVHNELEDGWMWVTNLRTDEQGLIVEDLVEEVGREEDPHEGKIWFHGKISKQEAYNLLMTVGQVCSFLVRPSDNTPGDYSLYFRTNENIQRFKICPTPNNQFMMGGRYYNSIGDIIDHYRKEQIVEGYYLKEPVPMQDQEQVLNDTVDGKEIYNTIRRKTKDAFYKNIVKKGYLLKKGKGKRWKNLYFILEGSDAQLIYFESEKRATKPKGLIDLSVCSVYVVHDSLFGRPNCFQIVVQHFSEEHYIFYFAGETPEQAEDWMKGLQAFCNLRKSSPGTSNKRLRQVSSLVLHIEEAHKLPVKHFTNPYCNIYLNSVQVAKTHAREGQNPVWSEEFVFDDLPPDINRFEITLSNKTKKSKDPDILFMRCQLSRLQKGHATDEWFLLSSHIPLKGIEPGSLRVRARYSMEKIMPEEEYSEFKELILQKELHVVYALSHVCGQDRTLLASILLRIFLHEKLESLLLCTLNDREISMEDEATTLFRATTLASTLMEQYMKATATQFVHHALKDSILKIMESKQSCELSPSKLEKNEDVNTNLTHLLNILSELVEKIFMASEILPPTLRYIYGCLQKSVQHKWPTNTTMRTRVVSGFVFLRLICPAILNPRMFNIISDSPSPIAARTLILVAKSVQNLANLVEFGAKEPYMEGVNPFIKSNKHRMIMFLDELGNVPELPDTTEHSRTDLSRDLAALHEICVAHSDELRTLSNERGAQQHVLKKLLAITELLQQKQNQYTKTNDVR
Chain of PIK3R2 tandem SH2 domains (human) (O00459 whole entry, the tested form may be a part): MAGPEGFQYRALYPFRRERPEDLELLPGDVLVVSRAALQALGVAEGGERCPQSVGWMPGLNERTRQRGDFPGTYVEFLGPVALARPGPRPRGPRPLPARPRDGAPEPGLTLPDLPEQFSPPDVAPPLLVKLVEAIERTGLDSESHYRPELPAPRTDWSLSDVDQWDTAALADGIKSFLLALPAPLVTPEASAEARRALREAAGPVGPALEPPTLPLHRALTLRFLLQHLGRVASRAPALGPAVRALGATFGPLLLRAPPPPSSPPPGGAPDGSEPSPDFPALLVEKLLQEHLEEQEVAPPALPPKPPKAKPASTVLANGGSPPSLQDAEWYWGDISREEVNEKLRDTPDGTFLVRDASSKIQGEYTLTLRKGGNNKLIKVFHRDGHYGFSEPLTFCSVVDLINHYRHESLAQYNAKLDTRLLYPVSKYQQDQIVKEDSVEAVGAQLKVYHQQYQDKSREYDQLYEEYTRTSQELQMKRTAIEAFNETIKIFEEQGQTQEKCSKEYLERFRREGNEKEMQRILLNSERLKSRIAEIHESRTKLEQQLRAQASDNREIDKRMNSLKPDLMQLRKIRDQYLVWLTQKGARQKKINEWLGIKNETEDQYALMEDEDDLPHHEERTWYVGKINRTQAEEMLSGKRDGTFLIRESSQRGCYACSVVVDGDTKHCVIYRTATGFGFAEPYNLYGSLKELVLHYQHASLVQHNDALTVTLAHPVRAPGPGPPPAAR
Chain of HCK SH2 domain (human) (P08631 144-241): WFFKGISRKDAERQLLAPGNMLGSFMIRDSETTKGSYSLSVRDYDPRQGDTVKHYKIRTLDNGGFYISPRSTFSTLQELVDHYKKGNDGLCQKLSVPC

Substance: ErbB2 pY735 phosphopeptide, rhodamine-labelled, for protein microarrays
- Kd (ABL2 SH2 domain (human)): 1.02 µM
- Kd (BLK SH2 domain (human)): 0.803 µM and 0.801 µM and 0.511 µM
- Kd (BLNK SH2 domain (human)): 46.8 µM
- Kd (BTK SH2 domain (human)): 1.53 µM
- Kd (HCK SH2 domain (human)): 0.888 µM
- Kd (NCK1 SH2 domain (human)): 5.29 µM
- Kd [1]: 1.47 µM
- Kd [2]: 0.577 µM and 2.9 µM and 1.01 µM
- Kd (PTK6 SH2 domain (human)): 0.801 µM
- Kd [3]: 5.42 µM
- Kd [4]: 3.46 µM
- Kd [5]: 81.9 µM
- Kd [6]: 0.748 µM and 1.63 µM
- Kd [7]: 0.773 µM
- Kd [8]: 27.4 µM
- Kd [9]: 3.86 µM and 1.6 µM and 0.634 µM
- Kd (SHF SH2 domain (human)): 0.933 µM and 4.39 µM
- Kd (SRC SH2 domain (human)): 1.21 µM
- Kd [10]: 0.91 µM
- Kd [11]: 0.801 µM and 3.03 µM
- Kd [12]: 0.59 µM and 0.805 µM
- Kd (TEC SH2 domain (human)): 3.22 µM and 8.7 µM
- Kd (TNS1 SH2 domain (human)): 1.6 µM
- Kd (YES1 SH2 domain (human)): 0.526 µM and 1.6 µM

Substance: ZAP70 C-terminal SH2 domain (from UniProt P43403 1-619) (domain or fragment)
- Kd [13]: 14.9 µM

Substance: RASA1 N-terminal SH2 domain (from UniProt P20936 1-1047) (domain or fragment)
- Kd [14]: 3.69 µM
- Kd [15]: 1.86 µM
- Kd [16]: 1.88 µM

Substance: PIK3R3 C-terminal SH2 domain (domain or fragment)
- Kd [17]: 5.83 µM
- Kd [18]: 4.43 µM
- Kd [19]: 1.84 µM
- Kd [20]: 8.38 µM
- Kd [21]: 0.255 µM

Reference: PMC3433420
